This note sets out measurements from US20180002381A1.

In test [1] the target is Coiled coil domain of Atg4L (Atg14L coiled coil) (Mus musculus (Mouse)) (UniProt Q8CDJ3). Kind of test: ITC.
Test [2] has as its target Coiled coil domain of UVRAG (228-276) (Mus musculus) (UniProt Q8K245). Kind of test: ITC. For orientation: In ITC the heat of successive injections is recorded.

Coiled coil domain of UVRAG (228-276) (Mus musculus), sequence (Q8K245 other isoform, or with tags, fused parts or gaps limits assumed): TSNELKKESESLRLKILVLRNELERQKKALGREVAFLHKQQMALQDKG
Coiled coil domain of Atg4L (Atg14L coiled coil) (Mus musculus (Mouse)), sequence (Q8CDJ3 other isoform, or with tags, fused parts or gaps limits assumed): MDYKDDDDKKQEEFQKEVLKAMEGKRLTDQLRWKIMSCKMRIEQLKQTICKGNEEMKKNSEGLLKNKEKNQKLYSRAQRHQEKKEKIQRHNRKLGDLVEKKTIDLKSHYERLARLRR

The Kd is a measure of binding affinity in units of concentration. High values mean lower affinity, low ones higher affinity. On to “Beclin1 mutant L241E/L245E (from UniProt Q91XJ1 174-266)”, for which the Kd stood at 500 nM in test [1] and 10 nM in test [2]. For the same substance, the fold stronger than wild-type Beclin1 in test [2] was 20 times.
